What all share (assay): SPR
In general terms: In SPR one partner is held on a chip, and binding of the other changes the refractive index at the surface.

Experiment [1] addresses SARS-CoV-2 spike glycoprotein ectodomain with poly-histidine tag (SARS-CoV-2 | bacteriophage T4) (UniProt P0DTC2).
Experiment [2] deals with SARS-CoV-2 extended S1 subunit (SARS-CoV-2) (UniProt P0DTC2).
Experiment [3] addresses SARS-CoV-2 spike glycoprotein ectodomain with double Strep II tag (SARS-CoV-2 | bacteriophage T4) (UniProt P0DTC2).

Chain of human angiotensin converting enzyme 2 (Q9BYF1 20-611): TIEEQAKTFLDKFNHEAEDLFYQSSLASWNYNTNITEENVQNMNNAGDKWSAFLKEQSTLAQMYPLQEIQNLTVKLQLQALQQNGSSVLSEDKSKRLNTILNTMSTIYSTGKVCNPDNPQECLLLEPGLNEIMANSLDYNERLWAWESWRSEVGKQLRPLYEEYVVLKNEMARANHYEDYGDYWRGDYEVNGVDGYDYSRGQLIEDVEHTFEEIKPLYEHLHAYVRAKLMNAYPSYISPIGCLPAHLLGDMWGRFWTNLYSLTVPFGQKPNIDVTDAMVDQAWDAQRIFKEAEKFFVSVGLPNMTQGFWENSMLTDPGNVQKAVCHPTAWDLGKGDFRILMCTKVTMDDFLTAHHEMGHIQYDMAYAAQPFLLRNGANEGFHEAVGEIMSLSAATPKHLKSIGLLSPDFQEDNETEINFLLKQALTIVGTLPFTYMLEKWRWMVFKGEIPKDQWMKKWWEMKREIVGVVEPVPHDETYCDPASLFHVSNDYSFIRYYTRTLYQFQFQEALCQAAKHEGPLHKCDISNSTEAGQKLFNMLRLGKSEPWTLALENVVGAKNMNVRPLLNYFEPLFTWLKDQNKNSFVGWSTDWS

Take LL-37 (peptide): the Kd is 420 nM in experiment [1], 200 nM in experiment [2] and 410 nM in experiment [3]. Moreover, the IC50 amounted to 170 nM in experiment [2] and 740 nM in experiment [3].

As for “human angiotensin converting enzyme 2 (from UniProt Q9BYF1-1 20-611) (receptor)”, the values for the Kd in experiment [1], in experiment [2] and in experiment [3] were 370 nM, 610 nM and 370 nM, respectively.

For orientation: Kd means the free concentration of one partner at which half of the binding sites on the other are occupied at equilibrium, for simple one-to-one binding. Low readings indicate higher affinity, high ones lower affinity. As a reminder, the IC50 is the point on the concentration scale where inhibition reaches its midpoint.

Values taken from paper doi:10.1101/2020.12.02.408153.
